Measured values taken from US20020133001A1, “Therapeutic agents and methods of use thereof for treating an amyloidogenic disease” (Praecis Pharmaceuticals Inc., priority 2000, published 2002).

B1: Fc domain without a β-amyloid fragment: control protein: mouse IgG1 Fc region with no amyloid binding sequence (protein)
chain: VPRDCGCKPCICTVPEVSSVFIFPPKPKDVLTITLTPKVTCVVVDISKDDPEVQFSWFVDDVEVHTAQTQPREEQFNSTFRSVSELPIMHQDWLNGKEFKCRVNSAAFPAPIEKTISKTKGRPKAPQVYTIPPPKEQMAKDKVSLTCMITDFFPEDITVEWQWNGQPAENYKNTQPIMNTNGSYFVYSKLNVQKSNWEAGNTFTCSVLHEGLHNHHTEKSLSHSPGK

How the values were obtained:
[1] = molecular target: T1, Aβ fibrils (aged Aβ 1-40) (Homo sapiens, UniProt P05067); test: Fibril binding assay; details: compound at 2 μM-200 fM dilutions; FIG. 9
T1 construct: 200 μM Aβ 1-40 peptide solution; purchased Bachem (Torrance, Calif.)
Method: The ability of a compound of the invention to modulate (e.g., inhibit or promote) the aggregation of natural β-AP when combined with the natural β-AP was examined using the Fibril binding assay. Natural β-AP (β-AP1-40) for use in the aggregation assays is commercially available from Bachem (Torrance, Calif.).
The following materials are needed for the Fibril binding assay: Millipore multifilter apparatus; 12×75 glass tubes; GF/F 25 mm glass filters; PBS/0.1% tween 20 at 4° C. (PBST); Aβ fibrils; radioactive compound; nonradioactive compound; Eppendorf repeat pipettor with tips; labels; forceps; and vacuum.
In this assay, each sample was run in triplicate. […]
The radioactively labeled compound was prepared using standard radioactive safety protocols by making a dilution into a PBS/0.1% tween-20 solution such that there was a final concentration of 20,000 dpm per 100 μL. […] The samples were covered with parafilm and incubated at 37° C. inside plastic radioactivity bags overnight.
To filter the samples, the filters were pre-wetted in a small volume of PBST. […] One minute counts were recorded, the data was plotted, and the Prism program (GraphPAD) was used to analyze the graph, according to the manufacturer's instructions.

amyloid plaques [2] = test: In vivo clearing of amyloid plaques in a mouse model of Alzheimer's disease; details: direct infusion into the cerebral cortex in one hemisphere; APP Swedish/presenilin M146L transgenic mouse
Method: The ability of Aβ(16-30)-Fc to clear amyloid plaques in a mouse model of Alzheimer's disease was assessed. The fusion protein was administered to a mouse transgenic for both the Swedish mutation of amyloid precursor protein and presenilin M146L by direct infusion into the cerebral cortex in one hemisphere. The mouse was sacrificed and the amount of amyloid in brain sections was determined by Thioflavin S staining.

amyloid plaques [3] = test: Immunohistochemistry: staining of amyloid plaques in brain sections with conditioned medium containing fusion proteins; format: binding; details: 20-22 week mice transgenic for Swedish mutation APP and presenilin M146L; COS conditioned medium; developed with anti-mouse antibody
Method: Twenty micron serial coronal brain sections were prepared from 20-22 week mice transgenic for both the Swedish mutation of amyloid precursor protein and presenilin M146L (Ref.). All incubations were performed at room temperature. Sections were washed once in 100 mM Tris, pH 7.4 (Tris buffer), incubated in 70% formic acid for 3 minutes, then washed three times in Tris buffer. Endogenous peroxidase activity was blocked by incubating for 20 minutes in 10% methanol, 3% hydrogen peroxide in 40 mM Tris, pH 7.4. Sections were washed three times in Tris buffer then incubated in 0.85% NaCl, 0.1% Triton X-100, 100 mM Tris pH 7.4 (Tris buffer A) for 5 minutes followed by […]) for 15 minutes. Sections were incubated overnight in conditioned medium from cells expressing secreted fusion proteins or anti-β-amyloid polyclonal antibody diluted 1/1000 in Tris buffer B. Sections were washed twice in Tris buffer A and once in Tris buffer B then incubated with biotin-conjugated anti-mouse antibody raised in donkey from Jackson Laboratories diluted 1/500 in Tris buffer A for 1 hour. Sections were washed twice in Tris buffer A and once in Tris buffer B then incubated with avidin-conjugated horse radish peroxidase using the ABC Immunohistochemistry kit from Vector Laboratories. […]

Sequence of amyloid plaques (P05067 672-711 limits assumed): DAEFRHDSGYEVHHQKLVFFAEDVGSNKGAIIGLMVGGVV
T1 sequence (P05067 672-711): as the sequence (P05067 672-711 limits assumed) above

Molecule	inhibition of Aβ aggregation (Fibril binding assay) [1]	plaque burden at the site of infusion compared to the control hemisphere (Thioflavin S staining) (amyloid plaques [2])	staining of amyloid plaques in coronal brain sections (amyloid plaques [3])
PPI-1019: compound tested in the Fibril binding assay; structure not given	effective inhibitors of Aβ aggregation	–	–
B1	–	no difference	No amyloid plaques were detected
